According to the DeepSol protein solubility set:

Test: soluble on expression in E. coli; label from the status in PepcDB or PDB records

| Sequence | soluble on expression in E. coli |
| --- | --- |
| MSFNPTRDDFEALLNDSMGGRDFAEGTVVKGKVVGIEKDFAIIDVGLKTEGRVQLKEFGVDENGKATVKAGDTVEVFLERLENAMGEAVISREKAKREEAWTRLEGVYARNEPVMGAIVGRVKGGFTVDLGGASAFLPGSQVDIRPVRDVGPLMGKEQPFAILKMDRPRGNIVVSRRAILEEARAEQRTELVSQLQEGEIREGVVKNITDYGAFVDLGGIDGLLHVTDMSWKRVNHPSQVLAVGDTVKVQIVKINPDTQRISLGMKQLQSDPWDGVEAKYPVGAKFTGRITNITDYGAFVELEAGVEGLVHVSEMSWTKKNVHPGKIVSTSQEVDVVVLDVDPSKRRVSLGLKQALANPWEAFLEAHPVGSTVEGEVKNATEFGLFVGLDNDIDGMVHLSDIDWSVPGEEAMARYKKGDMVKAKVLDVDVEKERISLGIKQLAGDPMSGDTYRKNQTVTVTVTEVTSGGIEVRFGEDDAPMTAFIRKSDLSRDRQEQRPERFAVGDRVDAQITNVDKAARRVSLSIKSLEMAEEKEAIEQFGSSDSGASLGDILGAALRERASKD | soluble |
| MGSDKIHHHHHHAQDKKKEFKMPTGYAGITHEMSEFYEPVPPVVTPGTDLKGGGFTAPSDAIVLFDGKDLSAWESVKGGAAEWDVHDGVFTVNKKKGDIQTKQKFNDFQMHIEWQVPTNITGESQSRGNSGIFLQGMYEVQVLDCYNNPTYVNGQTGSIYKQSIPLANAMRKPGEWNVYDIIYTAPTFKEDGSYRTHPTVTVIQNGVVLQNHTTILGTTEWIGFPQVKKHGAGPIILQSHGDPSEPISFRNIWIREL | not soluble |
| MTDVPALEIKNLHKTFGQNEVLKGISLQAQKGDVISIIGSSGSGKSTFLRCINLLETPTAGEIWVKGELIQMKTTRQGTVQPAKEKQVQRIRSRLAMVFQSFNLWSHMTVLENVIEAPVHVLGVPKAQAIEQAERLLRKVGLYERKDYYPGHLSGGQQQRAAIARALAVEPEVMLFDEPTSALDPELVGEVLGVMRDLAEEGRTMLVVTHEMAFARDVSNHVMFLHQGKVEEQGKPEKLFKNPDSERLKQFISSIY | not soluble |
| MEVVIIAFLTQKEFEDLGFDEVEDFEKMEKRASHAVNLYCRNRYDYKDLKKEIALVQKAVKRAIAYQIAYLNDSGVMTAEDKQSFAGISLGRTSISYTVGHGQGSQQKTLADRFNLCLDAENELLAVGLGYTGISYDR | not soluble |
| TRNFEWIVGGNITRSRDKIKSLGGEEQIVLSYDNGVQMVNRVGESPYQFYGYQADGVYSTQAEADAANLSNRTGRRYNAGDVRFVDQNGDNRIDDKDRILLGSAAPSYFGGFYTQLKYKGFALSAEFSYSKDNIAYNAVRQQLEAVSTTNNQSIAAVNRWTVEGQKTDMPKATWKDPVGNSYFSSRWMEDASYLRMKNVTLSYTFSKTLWNFFRSGTIYVTGENLLTFTDYLGMDPEFSYSYAENMQGFDNAKLMQPKTVKMGVNLKF | not soluble |
| MPGFNYGGKGDGTGWSSERGSGPEPGGGSHGNSGGHDRGDSSNVGNESVTVMKPGDSYNTPWGKVIINAAGQPTMNGTVMTADNSSMVPYGRGFTRVLNSLVNNPVSLEHHHHHH | soluble |
| MGSDKIHHHHHHMWMNGFARWMDKLKVLSSEAGSKACWGYDACPAGDGIIASIDGYSMDSSRLPWMSLGDWGWKSVVAAASDVAASGGAPFHVMYSLGLDSVERAVDVARGVGEAAVWMGATVGKSDFNTSKSPWIDVAVLGKAEKPLGRFGAKPGMTLVQVGASGYGLLSHLTLQGRLSRDDLPGPVVEYTRRPKPPLRIGPELSSCEAAASIDNSDGLGASLHLLGVESGVSVVIDDILVDRHVEKVLDELGLEKWAVLQSWEDYNIVAVGGDGSIDCILRWCRRLNIECATVGYTSSDGAGRVLIEGGRREFRVSGWTWL | not soluble |
| MMPLNRQSTTPLYIQLYQQMRDDYDATQANHQLWSIRKMAQNLGVSKTTVEQAYDQLLAEGYVYTVPGSGYFYRDRTHWPAAKQALETVPQPTKPRAFTYDFRYGVTQLLSPSWNAWKRAVRLALRQTEQQPTAVYPDAQGLPALRENLVRFLKTTRGVRCTADQIVITSGAKAGLSILLSILPRGTVGIENPGYRGLSELAASYGQTAVPIRVTEDGLDLTQVRARNPQIIYTTPGHQFPLGVVLPIEKRLALLQWAGTQHLIIEDDYDSEYRYSAHPLPALQSLATANQVAYLGTFSRGIDPTLRMGYLVLPPQLVATYHQRYQYRAEMVAGLLQQAMANYFEDGAYYRHLSRNRAANRQKYRVLCHQLAQTKQIRPIATGAGVHLVVQIPGIAQAKLLEALEQQQVRIYPLSSNWRDMPTTDYYLLGFAGLTLSELTTGVKRLVQVCEQLVR | not soluble |
| RRRPLSCDAASQAGSNYPRCWNCGGPWGPGREDRFFCPQCRALQAPDPTRDYFSLMDCNRSFRVDTAKLQHRYQQLQRLVHPDFFSQRSQTEKDFSEKHSTLVNDAYKTLLAPLSRGLYLLKLHGIEIPERTDYEMDRQFLIEIMEINEKLAEAESEAAMKEIESIVKAKQKEFTDNVSSAFEQDDFEEAKEILTKMRYFSNIEEKIKLKKIPL | not soluble |
| MSEIVVSKFGGTSVADFDAMNRSADIVLSDANVRLVVLSASAGITNLLVALAEGLEPGERFEKLDAIRNIQFAILERLRYPNVIREEIERLLENITVLAEAAALATSPALTDELVSHGELMSTLLFVEILRERDVQAQWFDVRKVMRTNDRFGRAEPDVAALAELAALQLLPRLNEGLVITQGFIGSENKGRTTTLGRGGSDYTAALLAEALHASRVDIWTDVPGIYTTDPRVVSAAKRIDEIAFAEAAEMATFGAKVLHPATLLPAVRSDIPVFVGSSKDPRAGGTLVCNKTENPPLFRALALRRNQTLLTLHSLNMLHSRGFLAEVFGILARHNISVDLITTSEVSVALTLDTTGSTSTGDTLLTQSLLMELSALCRVEVEEGLALVALIGNDLSKACGVGKEVFGVLEPFNIRMICYGASSHNLCFLVPGEDAEQVVQKLHSNLFE | not soluble |
| MIFVGNFIQDEKGKGLRIGFVHYRPFDETVGMNLPEETIRQMGALVDEIPEPEQREGKIPVMYYNPETNTVYYEYEDKPLSLEEEIKYLKELNAELIYQLMMKGAL | not soluble |
| GMGSSRKVIITCAVTGAIHTPSMSPYLPVTPDEVAQASIGAAEAGAAVIHLHARDPRDGRPTQDPAAFAEFLPRIKSNTDAVINLTTGGSPHMTVEERLRPATHYMPELASLNMGSMNFGLYPMLERFKEFAHGWEREHLERSRDLVFKNTFADIEFILKTCGGNGTRFEFECYDTSHLYNLAHFVDRKLATPPFFVQTVFGLLGGIGPHPEDLAHMRRTADRLFGADYVWSILGAGRHQIPLASIGAAQGANVRVGLEDSLWIAPGELAETNAAQVRKIRQVIEGLSLEVASPAEARTMLGLKGPQNVNF | soluble |
| SDSQSSILEENLEKILRGEGLEFDSVAEQVDPVTLRKNVCYIVGAVIFNSKEEVLMVQEAKRECYGRWYLPAGRMEECESILEALQREVREEAGIDCQPITLLLVQEQGPRWVRFIFLAEETGGSLKTTAEADDESLQAHWWDRKSPLPLRAHDILSLIDAGLKYRRNPWFPVTQPVDFPCHVVCQRLFLTFISSRADADDRLWLLMSNNNTSHHPRLPIVVSFRTYISKAVSKLIEDCMPSSYISVHIRGILGVQHNGRIPGKTDGICFNTLVLLENTEEGAEIGSPPSLETDCYRWQEVTNQGLKAKIIERIKDGSVLPFQSL | soluble |
| MGSDKIHHHHHHVAVWNPWRGCHRYSEGCKFCYIHKGDMKRGMDTNLIVKSAKFNAPVAVNKQGHYIMKSGQLVYCCFSTDFLLEDADPWRDECWSMMKERPDLHFLFLTKRIERFSQCLPGDWGEGYENVTVGCTVENQHTADERLEIFSKLPIKHKNIALQPMLEAIDIEKYLEGIELVVVGGEYDRNARPFDYEWALAVREQCIRHQVSFSFRQCGTNFIQNGKLRRLNYGMLFKCARESNIDYQAGRE | not soluble |
| GMNLDSYERTGLRVSLDLVNIATPGSRRGTPHTGGCVIEDLHDLLKDDPASVAQLGDDHVEGFVELARLLHTAIDALSNGQVATAATALNHLLRKHPATPELAQDPDGTWRLHHHPLDAELVPMWTAICAEGLAREIGHQNVRRFGICNAHRCDRVYFDTSRNGTRQYCSLACQNRVKAAAFRERRAT | soluble |
